Measurements as given in the domain aggregation screens of Martell et al. (2025).

Experiment: soluble fraction after stress (log2 fold change); higher = more stays soluble; pooled small domains, quantitative proteomics
Conditions: stress: 75 degC
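Further: 20 min heating vs room temperature control held 20 min.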

Sequence	soluble fraction (log2)
HMPNQIKQIAVNTASVSDIATIPGISFDFAKEIWEFRILRQKIGSLSELQKIEGMTASKYALIELYLHI	-3.71
HMPNSIKAPAYLHNIARIYDHVLIDVEKASSAYEKLIKKYPNHPLSINAKLYLENAFNRSDEELLNMIKEN	-0.892
HMPNYVEMLRLHEAGFSLRQIAKLVSSGRNTVTRTVNIAQEKELSYEEIAQWSSEELENMFKPD	-2.25
HMPPDIKVVGVTVASDPRASFAMLSSNGKTLSYRVNDLIEGTEYHLIKVEAAAITIATAGGQSTQIAF	-2.54
HMPPFTYHLERAKRKTVGFIVDERGVTVRAPRWVSVSEIEKMLQTKEAWIQKKLTEFHNWQKE	-3.39
HMPPHGHIVELLPEQDFGRIETGDGRLVYFHRNSVLDGDFAQLAVGDAVRFAEEMGERGPQASSVHVE	0.0508
HMPPLKYLKVKSYLEAVAVKAESAMRMPTVRELMNQFNVSLATVNRALSELENDGVIVRRQGSGIVAAG	-0.00508
HMPPSGPWEQDPPSEAQLKPFNEAMKRTADIDVDLYEKAKKALNDGTITKGNIYDWINREDSPWVLQDGS	0.241
HMPPSQRVNRILSLAGITSRRKADEYILEGRVTVNGEVLKEPGAKAVWGTDDIRVDGKPIPALS	0.0835
HMPPSVAETLKRLRRHKSLSLEELAQMSGVSRSMLSQIERDATNPTVATLWRITAALGVSIDEVLGV	-2.43
HMPPTEQVYRSHVPPQYDGFPIEKYFTTRFSYQDVEEWSRQILAGKIEVNGKTALIGQILSASDLTVTRA	-0.895
HMPQETPIPKSEIQSYDEIWLEPISTDNILRNELRGWYHVKDRWVENEFGNRFYLDTYASKWLAFPS	-0.333
HMPQKIVIQKGVVIKKRERSDAWQIYITVKGKKPIRKSANTDNVEKAKQMALTLFAEKNYKVENNLPIQ	-1.17
HMPQLSNEEQKIVDALEGSDGKQINLITVETNIPMARLMSVLFEMEMRGIVKSLNGARYKLN	-1.3
HMPQTDDSEPLGKYGRMRLAYLKNQRPVLYNQMLLNGTLWPHLQDVQKTAYEWLERTMTTLLDK	0.0585
HMPRDQQENIYLLEKGKRLYEEHLGDQRQIIGHRIMIFERILESQDHAQIRRAQSEFAEFLSHYDG	-0.8
HMPRDYYAVLEVSVSSTPVQIRQAYQRLARRYSPDVNFLDRDTEALFEEIVEAYRVLSNPTARTLYDRG	-4.52
HMPREQQENVYLLEKAKRLYEEYLGDQRQTIGHALAQFERVLESQDPAAIRRAQKEFGEFLERYDG	-0.0743
HMPREVKLPPDLLDALEASPEAKAFFLQLSYTHQKEYAQWIEEAKQEATRQRRLEKTVQMLLEGRRT	-1.27
HMPRFDINFKVGEVVTIKGGSFDGQQGEISEIDHEHGKIKVMLEVLGRLTPVEVEHTEIEKI	-0.269
HMPRKLDDQLQEQIRYLKSNYPRMSAAGIFRQLQDNGSIKHGDVSESTINRYVNLLSIEMKTTT	-0.395
HMPRNMTFAIRGEYITLDALLKAVGAADSGAQAKHRIAEGEVTVDGVVETRKTRKLRGGETVVVDDLAVVL	-0.734
HMPRQREVPDVSGWTEQHAKVYLEALGYRVKVIYLEVSSFDKGLVQETSPAKGSKVEEGDTIDLRVSNQE	-2.64
HMPRSLGADLRAIRKGRRLTLTDMAEALDRSVGWVSQVERDISTPSISDLRRMAEILDVPVSLLFG	-3.17
HMPSARELLATNIVRLRKEKGWSQEDLALEAGLHRTFVAHVERHARNISLDNIERLANALQVNVHILLL	-3.81
HMPSEDELAERLRGAIRQGDILNEGRMPPERALAEHFGVSRARLRLALGLLQEDGTIYRRHGQGTFAT	-0.308

Sequence	soluble fraction (log2)
HMPSIGKNILYYRKKRNMTIDELSKKSGVSKSMLSQVEQEKTNPTVVTVWKIARSLDVSINQLLQT	-2.83
HMPSKKHARWIELEARKFMADNEDAVSDLHELRTRAANFAALKTSTLPVDQHRAIVAGFVARVNELGRRI	-1.02
HMPSLSPDETVVVDALRQQNDMQINMISVKTNLPIARLSAILFEMELKGVLKPLAGGVYHLL	-2.3
HMPSPEMLKETEKRKAEEIYRSQINLFIDDYHRLKGQYPLLEDIIDNKKDSIPIEILREISISILKNYFE	-0.802
HMPSPEVELLEDLLSKTDEAEVEAAFHENQALVNDEFKAMLGSLIQELSKTQEADPEIIARIRFIQKLT	-0.128
HMPSREDFAYDSIKEAILSGELLPNQKISLSDLANKLGISIIPVNSAVGRLVAEGLVRQDPHHSPYVV	0.481
HMPSRPIQVASFSKEDNAKRAAEALAKIGVTATPQKSEKAGKAVWGVVVTGDDAMLQKIKDAGFADAYFL	0.0515
HMPSTKDGIKEFLSSGAMKGIGRKTASAIVSRFGIDTLKIIEQEPQRLTEVSGIGKKTAQRIAEAFGKH	-0.26
HMPSTVRVPDVAETSLSEAKKTIEESGLEVGAIHKVNNDTVKKNHVIKTSPTIGSAKKEGSAIDIYVSKG	-0.0483
HMPSTVSVPDVAGSSLSEAKTTIKSSGLKVGTVHKVSSDTVESGYVIKTSPTAGSSKKEGSSIDIYVSKG	≥ 1.04
HMPTANFPAMAEALKKQYGPPTGEEETSWTHRLGGVFDIKIQSWNTPQGEMVLRSRGAAMDAGML	0.385
HMPTEPTARELEVTTLLAQGLSNREIAGALFISEHTVRNHLGHVFSKLGVSSRTQAVVRAGQLGWLR	-2.54
HMPTKSDLLQWIKDRASKMGGAFTNSGAYALADAGVDGPRALSSEINKLLTYVNWERSVEADDVIRL	-0.455
HMPTLTPFDVARIENAINPRLNLETAAKLKPWIAAGYTAQETADGTGFSPDTVKKYAAIFRK	-0.0357
HMPTQTEELRRRIVADVNAGEPGAKLGSERELAERYGTSRSSLRQVLAALQEAGLIDRVIGRSGGIFISH	-0.0502
HMPTSILEKILNSAAEQFTRYGFKTITMDDIARHAGVSKKTLYQHFETKLDIIVAAVTHFHTMKF	-1.62
HMPTYEEAKTYLKAAFEHIVAAGRDVGELVEFAFAKSGDAVAPYLRRFLSDVHEGRITIQGLTESAKLAV	0.292
HMPVEQVWHIAEAGKTKGPFSRASMGRMSADGALTRDTLVWTAGQDGWKKAADVTALATLFT	0.0108
HMPVFYATNRQKTTIHNLKRKKGLDDDAYRATIYSFTHGRTDSSKYMYKYEAAELIQKWLDPE	-1.49
HMPVGVPGVVYNTDSLNVRKGAGTNYDIVSKLKRGSVIEVLEQTAVDGTVWGRIAEGWVNMEYVSL	-1.04
HMPVSDLQSALRNTLSKGDATDPAFRQRVYRAAMDALERATGSESDPQRRSEQKQRLIAVIRDMEASYRR	0.157
HMPVTKSARQSRIGELIAREPVRSQSELAARLADDGIVVSQGTLSKDLLELGAVRVRTSSGELAYALL	0.0547
HMPWLIAVTVDGVNLPRFLRRAGEMGLLLTGVRIRGKHLSAFAREDDVPPLRMMAENGGWRFSVGN	-2.23
HMPYEHQRAVGALIRRLREQQGWSQRALADWVHMDQSAVSRVETGQRSVTAEELGRFADALHVSTDALVR	-0.263
HMPYFLKQSNTRSKGLYLQIYHSFYVPGKGSRNKSYKAIGYVSELIKNGIEDPITYAKNLVDELNNNSSTP	-3.82
HMPYPSPADLARMDELIAWVKDEGRLPRDRSGQRSERSMARWLAARRREAAEGTLDPAYRDGLAQVPGWR	-0.497

Sequence	soluble fraction (log2)
HMPYSAAVTFLDDAKQPMVNYNYRLIAENGIEVSGITDEFGKTQPIQTDQREKVDLYIADLPN	0.693
HMQAALEVQASAGVLAPVPPDQRQALLDTLAQDPRPGYQHEAGRVYGFPFGGFEVRFTVSDGLLTVLSAYK	-1.82
HMQAATQVNIVGLFSNKAVVIINGGKPKTLSVGQTSEGVKLLAADSQTATLQIEGKTQQLGMGQAASVGG	-0.758
HMQAESLTVVRSAELKADRFLDAATLQTLQTGQVVESLRTESGWVQVRIAGQQGWVRAMNVKGA	-1.1
HMQAITVNNEGKIFLNTIPVTLEELSSKLESLKSSTPEFPVVIRGDSGSQYQGIMDVLNVVGRLGITQIGL	-0.708
HMQAKDVEVPDYVGKSFVSIKENNPNDFKFEVKSEYDESKEMGVILDQEPKGGSMKVKSGSTITVTV	0.156
HMQASPADLLSDRELEVFQLTGEWKTTRQIAQELHLSVKTIEYYREQIKRKLNLKSAAELTQHATAWVQRG	-2.93
HMQDAVASEKIQLMSEALHARDTGDLLLAKEKVEKLIALAPNDKNIQALLLTINQSIEDKGL	-0.112
HMQDIDIVDLKRISELIYQKYNYDFRNYAMSSFKRRVQRIIELKKLTVDGLIKRLNDTPSFINEFLDELTV	-0.014
HMQDNLKKYMDKLSQRDAELIVYKYLWNMSEKEISEMFHIKQEQVHVYVGRAKKRLFKIIKKEME	-0.425
HMQDRDKNIEEGRQLVLHEMDRLDLVDEPLHDVARQLNMKAVEDMFAAVGAGDLRLGQIIHQLLKQADTN	-0.215
HMQDSIYYAQYRINIRNMPSSEGMVISRASVGEALEVLDWQEQWSKVRKQSGVEGYVASRLLTK	-2.34
HMQDTIDLVIQVNGKLRGQMNVPKDTDRATIEQLAINLENVQKIVAGNAIKKIIIVPGRLINIVVSKNL	-2.78
HMQDTYQVKLLTNLNIRKSPNGTIVQKGGAKKGIIYTIVETSGTWGRLKSNAGWISVSDKYVTK	-3.58
HMQDVKRYLVNSNQLNVRTGPGKEFEISESLNKGDAVTLLHKESNGWWEVITSTGQGYVYSSMLTKDPW	-0.735
HMQDVVERIKKYKQLFSITSEELSKRSGIPLGTLNKILSSSTKSIKTETLAAIAKGLDVSVSDLVGREK	-0.251
HMQEAGKWLKKLRTERKITLEQLSKKTGLSVGFLSQFERGLTSIAIDTLEKIAAVFNVTIDYFISP	0.0548
HMQEEFVAPDVKDGAIVLHKAFGEGTVTKIDKAQKHIRVTFGVGEKTFIFPDAFKQGFLRMKG	0.303
HMQEERLTFDTLLGISGIGPRLALAVLSRFTPGSLAAAVDAGDTKAFSAVPGVGNRTASRIILELKGKL	-0.748
HMQEGPGLVPDFRGQTMREVLRGGQSLGVRVAVDGTGLAVAQTPEPGSPLNKVSQVTVSFRPP	0.0233
HMQEINLIGVTGNDLERSALVKLLDGEIIKLSVGDNLNGGRVVDISAVTLTYLKSGQSITLKLPK	-2.9
HMQELGVISEGKYNIELNMVSWNDREPKYDIRSWAPDHSRMGKGISLTEEEMERLVELWNTRNE	-0.441
HMQELKWERNYKLVQDYIKQYGVLPSKNTKYANVSIGRWLTNQHELVKEDNLAPERFEKIKELDT	-0.297
HMQENDLGAVEKIVDDVLHDPKNAQAVADFKAGSEKVLGFLTGQVMKASRGKANPSVVQEVLRQKLKN	-0.314
HMQENVIIYPNPTKSVIYLSEKVEFILYNILGEIIFIGDNNKIDLNSFDNGVYIFESGNVRTQIIK	0.0395
